Results reported in the supplement of paper PMC7877785.
± gives the uncertainty stated by the source.

Assay: self-splicing fitness, log relative to wild type (ln ratio); higher = more splicing; Tetrahymena group I intron in knt gene, E. coli kanamycin selection, DiMSum; sequences stand for … in CUCUCU…GGAGGGAAAAGUUAUCAGGCAUGCACCUGGUAGCUAGUCUUUAAACCAAUAGAUUGCAUCGGUUUAAAAGGCAAGACCGUCAAAUUGCGGGAAAGGGGUCAACAGCCGUUCAGUACCAAGUCUCAGGGGAAACUUUGAGAUGGCCUUGCAAAGGGUAUGGUAAUAAGCUGACGGACAUGGUCCUAACCACGCAGCCAAGUCCUAAGUCAACAGAUCUUCUGUUGAUAUGGAUGCAGUUCACAGACUAAAUGUCGGUCGGGGAAGAUGUAUUCUUCUCAUAAGAUAUAGUCGGACCUCUCCUUAAUGGGAGCUAGCGGAUGAAGUGAUGCAACACUGGAGCCGCUGGGAACUAAUUUGUAUGCGAAAGUAUAUUGAUUAGUUUUGGAGUACUCGUGGUCG
Summary of the method: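 A randomised library covering all eight P1ex-region intron nucleotides was built with the intron in the knt kanamycin-resistance gene on pET-22b(+) and held in E. coli BL21(DE3). Cells were grown overnight at 37°C or 30°C on LB agar, with or without 25 μg/mL kanamycin, plus 100 μg/mL carbenicillin, 50 μM IPTG and 0.2% rhamnose, and pooled colonies were amplicon-sequenced on an Illumina HiSeq 2500. DiMSum fitness is the error-weighted combination of wild-type-normalised replicate fold changes, kanamycin versus none.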

| Sequence | self-splicing fitness (ln) (30 °C) | self-splicing fitness (ln) (37 °C) |
| --- | --- | --- |
| AGCUAGCAAUAUUACGUCGG | -2.97 ± 0.3 | -1.32 ± 0.26 |
| AGCUAGCAAUAUUACGUCUU | -0.517 ± 0.098 | 0.46 ± 0.14 |
| AGCUAGCAAUAUUACGUGCG | -1.02 ± 0.066 | -0.499 ± 0.091 |
| AGCUAGCAAUAUUACGUGGG | -4.49 ± 0.2 | -2.72 ± 0.15 |
| AGCUAGCAAUAUUACGUUAA | -2.49 ± 0.21 | -1.36 ± 0.14 |
| AGCUAGCAAUAUUACGUUAU | -4.39 ± 0.32 | -2.19 ± 0.17 |
| AGGAAGCAAUAUUACGAAAC | -2.83 ± 0.38 | – |
| AGGAAGCAAUAUUACGAAAU | -3.06 ± 0.2 | -1.53 ± 0.18 |
| AGGAAGCAAUAUUACGACGC | -0.0969 ± 0.13 | -0.574 ± 0.14 |
| AGGAAGCAAUAUUACGACUA | 0.0184 ± 0.094 | -0.351 ± 0.12 |
| AGGAAGCAAUAUUACGAGGC | -3.01 ± 0.3 | -2.31 ± 0.34 |
| AGGAAGCAAUAUUACGAUAU | -3.48 ± 0.19 | -2.5 ± 0.12 |
| AGGAAGCAAUAUUACGAUGC | -2.26 ± 0.17 | -1.04 ± 0.22 |
| AGGAAGCAAUAUUACGAUGG | -2.53 ± 0.16 | -1.88 ± 0.21 |
| AGGAAGCAAUAUUACGCAAA | -1.79 ± 0.14 | -1.23 ± 0.14 |
| AGGAAGCAAUAUUACGCAGU | -3.41 ± 0.15 | -0.746 ± 0.095 |
| AGGAAGCAAUAUUACGCCUA | -0.554 ± 0.12 | -0.497 ± 0.14 |
| AGGAAGCAAUAUUACGCGUG | -1.49 ± 0.072 | -0.951 ± 0.092 |
| AGGAAGCAAUAUUACGGACG | -0.899 ± 0.13 | 0.276 ± 0.14 |
| AGGAAGCAAUAUUACGGCGG | -1.34 ± 0.085 | -0.207 ± 0.11 |
| AGGAAGCAAUAUUACGGGUU | -3.14 ± 0.15 | -1.96 ± 0.15 |
| AGGAAGCAAUAUUACGUAUG | -2.39 ± 0.14 | -2.3 ± 0.16 |
| AGGAAGCAAUAUUACGUGCU | -2.18 ± 0.17 | -0.868 ± 0.16 |
| AGGAAGCAAUAUUACGUGGU | -3.36 ± 0.15 | -2.61 ± 0.25 |

| Sequence | self-splicing fitness (ln) (30 °C) | self-splicing fitness (ln) (37 °C) |
| --- | --- | --- |
| AGGCAGCAAUAUUACGAACC | -0.0701 ± 0.18 | -1.03 ± 0.2 |
| AGGCAGCAAUAUUACGAUCU | 0.0214 ± 0.086 | 0.2 ± 0.12 |
| AGGCAGCAAUAUUACGCAAA | -1.43 ± 0.15 | -1 ± 0.2 |
| AGGCAGCAAUAUUACGCAAU | -2.26 ± 0.14 | -1.76 ± 0.094 |
| AGGCAGCAAUAUUACGCCCA | -0.718 ± 0.094 | -0.205 ± 0.15 |
| AGGCAGCAAUAUUACGCCUA | -1.98 ± 0.23 | -0.0372 ± 0.14 |
| AGGCAGCAAUAUUACGCGCG | -0.446 ± 0.12 | -0.358 ± 0.14 |
| AGGCAGCAAUAUUACGCGUG | -2.48 ± 0.13 | -0.717 ± 0.11 |
| AGGCAGCAAUAUUACGCUAU | -1.45 ± 0.088 | -0.464 ± 0.092 |
| AGGCAGCAAUAUUACGCUCA | -0.172 ± 0.079 | 0.0289 ± 0.12 |
| AGGCAGCAAUAUUACGCUCC | -3.69 ± 0.4 | -2.01 ± 0.33 |
| AGGCAGCAAUAUUACGGCGC | -1.13 ± 0.11 | 0.292 ± 0.18 |
| AGGCAGCAAUAUUACGGCUU | -2.17 ± 0.12 | -1.83 ± 0.16 |
| AGGCAGCAAUAUUACGGGAA | -3.59 ± 0.23 | -2.42 ± 0.18 |
| AGGCAGCAAUAUUACGGGUC | -2.67 ± 0.17 | -3.01 ± 0.22 |
| AGGCAGCAAUAUUACGGUAA | -2.35 ± 0.088 | -1.75 ± 0.076 |
| AGGCAGCAAUAUUACGUCGA | -0.305 ± 0.043 | -0.0427 ± 0.055 |
| AGGCAGCAAUAUUACGUGAU | -2.2 ± 0.14 | -0.983 ± 0.13 |
| AGGCAGCAAUAUUACGUGGU | -3.88 ± 0.14 | -1.54 ± 0.1 |
| AGGCAGCAAUAUUACGUUAA | -2.6 ± 0.15 | -1.88 ± 0.13 |
| AGGGAGCAAUAUUACGAAAG | -1.91 ± 0.14 | -2.14 ± 0.24 |
| AGGGAGCAAUAUUACGACUA | -2.2 ± 0.5 | -1.98 ± 0.32 |
| AGGGAGCAAUAUUACGAGAC | -3.09 ± 0.4 | -2.77 ± 0.36 |
| AGGGAGCAAUAUUACGAUGC | – | -2.65 ± 0.41 |
